Target: GFP-CaV1.1e (embryonic splice variant of CaV1.1, lacking exon 29)

B1: γ1 subunit of the skeletal muscle voltage-gated calcium channel (mouse γ1) (natural protein)
chain: MSQTKTAKVRVTLFFILVGGVLAMVAVVTDHWAVLSPHLEHHNETCEAAHFGLWRICTARVAVHNKDKSCEHVTPSGEKNCSYFRHFNPGESSEIFEFTTQKEYSISAAAIAIFSLGFIIVGSICAFLSFGNKRDYLLRPASMFYAFAGLCLIVSVEVMRQSVKRMIDSEDTVWIEHYYSWSFACACAAFILLFLGGLFLLLFSLPRMPQNPWESCMDAEPEH
- shift of the half-maximal potential of steady-state inactivation of CaV1.1e calcium currents to hyperpolarizing potentials on coexpression of γ1 (whole-cell patch clamp, HEK-TetOn-STAC3 cells): 13.7 mV

From article PMC9037348
